Source: US10130682B2, “Methods of using pigment epithelium derived factor (PEDF) for the treatment and prevention of agent-induced gonadal or uterine toxicity” (Ramot at Tel-Aviv University Ltd., priority 2014, dated 2018)

What was measured:
[1] = tested on: ovariectomized (OVX) ICR mice; test: Uterine weight, sub-acute tamoxifen model in ovariectomized mice; assay type: in vivo, mouse; conditions: rPEDF 10 mg/kg SC with tamoxifen 2.5 μg/mouse daily for 7 days
Description: (§1) DXR damage was evaluated in 7 weeks ICR female mice following treatment for superovulation with pregnant mares' serum (PMSG, 7 IU) SC on day 0 and human chorionic gonadotropin (hCG, […]) SC on day 2. On day 1, mice were administered with DXR (6 mg/kg) or saline (control) IV. Mice ovaries were retrieved on day 3 (FIG. 1A). The ability of rPEDF to overcome the destructive effect of DXR 7 weeks ICR female mice were treated with DXR (6 mg/kg) or saline (control) IV on day 0, rPEDF (2 mg/kg) or TRIS (control) was administered SC on day 1, followed by induction for superovulation with PMSG (7 IU) SC on day 4 and hCG (7 IU) SC on day 6. Mice ovaries were retrieved on day 7 (FIG. 2A). […] Mice uteri were excised at day 7. […] Mice treated with tamoxifen alone served as control. […] Mice treated with tamoxifen alone served as control.
(§2) At the end of each experiment, uteri were isolated, excised and weighed.

CD34 = CD34 immunohistochemical staining of uterine blood vessels, prolonged tamoxifen model; assay type: in vivo, mouse; conditions: prolonged treatment
Description: as §1
Paraffin-embedded sections were deparaffinized, microwave heated while being subjected to an antigen retrieval agent (H-3300, Vector Laboratories Inc., Burlingame, Calif., USA), cooled on ice to room temperature, rinsed in PBS, incubated for 1 hour with PBSTg (0.2% Tween and gelatin in PBS), washed with PBS, blocked for 10 minutes in blocking solution (Cell Marque Corporation, Calif., USA) and incubated overnight with anti PNPLA2 or anti-CD34 primary antibodies. […]

AKT [2] = test: Uterine AKT phosphorylation (western blot), sub-acute tamoxifen model; assay type: in vivo, mouse; conditions: 7 days
Description: as §1
(§3) Samples were homogenized in cold lysis buffer (20 mM HEPES, 150 mM NaCl and 0.2% Igepal; sigma) and centrifuged at 12,000 rpm, for 15 min, at 4° C.). Proteins were separated by sodium dodecyl sulfate polyacrylamide gel electrophoresis (SDS-PAGE; 10%; Bio-Rad, Israel). […] Approximate molecular masses were determined by comparison with the migration of pre-stained protein standards (Bio-Rad). […] Intensity of the protein bands was quantified by Image J […] (NIH).

SOD-1 = SOD-1 mRNA level (qPCR) in LH-15 cells under H2O2; assay type: cell-based, rat; conditions: rPEDF 1 nM added to H2O2
Description: (§4) Rat granulosa cell line LH-15 [Suh et al. J Cell Biol (1992) 119: 439-450] was cultured in hormone-free DMEM-F12 medium, supplemented with penicillin (100 IU/ml; Biological Industries), streptomycin ([…]; Biological Industries) and 10% charcoal-stripped fetal bovine serum (CS-FBS; Invitrogen) (culture medium), as described previously (Breckwoldt et al. 1996, Sasson & Amsterdam 2002). Cells were serum-starved for 16 hours (0.1% CS-FBS) prior to and during recombinant PEDF (rPEDF) stimulation or incubated in 2% CS-FBS during H2O2 stimulation.
(§5) Total RNA was isolated from various tissues (ovaries, eyes) or from granulosa cells, using Trizol reagent (Invitrogen) according to manufacturer's instructions, and quantified with the Nano-Drop spectrophotometer (ND-1000; Thermo Scientific). First-strand cDNA was produced by RT (Maxima™ Reverse transcriptase, Thermo Scientific) from a total of 1 μg RNA, using oligo-dt primers (Thermo Scientific). DNA was amplified using 1 μl RT reaction and 50 pmol gene-specific primers in ReadyMix™ mixture (Sigma). […] Changes in the level of expression of mRNA were detected by SYBR green reagent (SYBR® Green PCR Master Mix, ABI, Carlsbad, Calif., USA) along with 15 ng cDNA and specific primers, on a StepOnePlus Real-Time PCR System (Applied Biosystems, Foster City, Calif., USA).

GPX-1 = GPX-1 mRNA level (qPCR) in LH-15 cells under H2O2; assay type: cell-based, rat; conditions: rPEDF 1 nM added to H2O2
Description: as §4, §5

ERα [3] = test: Uterine ERα mRNA (qPCR), prolonged tamoxifen model; assay type: in vivo, mouse; conditions: prolonged tamoxifen model
[4] = tested on: progesterone receptor (PR); test: Uterine PR mRNA (qPCR), prolonged tamoxifen model; assay type: in vivo, mouse; conditions: tamoxifen models taken together
Description: DXR damage was evaluated in 7 weeks ICR female mice following treatment for superovulation with pregnant mares' serum (PMSG, 7 IU) SC on day 0 and human chorionic gonadotropin (hCG, […]) SC on day 2. On day 1, mice were administered with DXR (6 mg/kg) or saline (control) IV. Mice ovaries were retrieved on day 3 (FIG. 1A). The ability of rPEDF to overcome the destructive effect of DXR 7 weeks ICR female mice were treated with DXR (6 mg/kg) or saline (control) IV on day 0, rPEDF (2 mg/kg) or TRIS (control) was administered SC on day 1, followed by induction for superovulation with PMSG (7 IU) SC on day 4 and hCG (7 IU) SC on day 6. Mice ovaries were retrieved on day 7 (FIG. 2A). […] Mice uteri were excised at day 7. […] Mice treated with tamoxifen alone served as control. […]
as §5, with “First-strand cDNA was produced by RT (Maxima™ Reverse transcriptase, Thermo Scientific) from a total of 1 μg RNA, using oligo-dt primers (Thermo Scientific).” left out

ERα [5] = test: Uterine ERα mRNA (qPCR), sub-acute tamoxifen model; assay type: in vivo, mouse; conditions: sub-acute tamoxifen model
ICR female mice = test: Number of ovulated oocytes in DXR-treated mice given rPEDF; assay type: in vivo, mouse; conditions: rPEDF 2 mg/kg SC the day after DXR 6 mg/kg IV; vs DXR alone
Description: FIG. 2A is an illustration depicting the experimental setting: 7 weeks ICR female mice (n=4/group) were treated with DXR or saline (control), at the day after mice were administrated with rPEDF or TRIS (control). On the fourth day of the experiment mice were induced for superovulation with the standard PMSG/hCG protocol [Ben-Aharon et al. Reproductive Biology and Endocrinology: RB&E (2010) 8: 20]. Mice were sacrificed 16-17 hours after hCG administration.
DXR damage was evaluated in 7 weeks ICR female mice following treatment for superovulation with pregnant mares' serum (PMSG, 7 IU) SC on day 0 and human chorionic gonadotropin (hCG, […]) SC on day 2. On day 1, mice were administered with DXR (6 mg/kg) or saline (control) IV. Mice ovaries were retrieved on day 3 (FIG. 1A). The ability of rPEDF to overcome the destructive effect of DXR 7 weeks ICR female mice were treated with DXR (6 mg/kg) or saline (control) IV on day 0, rPEDF (2 mg/kg) or TRIS (control) was administered SC on day 1, followed by induction for superovulation with PMSG (7 IU) SC on day 4 and hCG (7 IU) SC on day 6. […]
cumulus-enclosed oocytes were isolated from the oviductal ampullae into M2 medium (Sigma), 16-18 hrs after hCG administration. Cumulus cells were removed by a brief exposure to 400 IU/ml hyaluronidase (Sigma) and the number of ovulated oocytes was counted under binocular.

ERβ = test: Uterine ERβ mRNA (qPCR), prolonged tamoxifen model; assay type: in vivo, mouse; conditions: tamoxifen models taken together
VEGF [6] = test: Uterine VEGF protein (western blot), sub-acute tamoxifen model; assay type: in vivo, mouse; conditions: rPEDF 10 mg/kg SC with tamoxifen 2.5 μg/mouse daily for 7 days
Description: as §1, §3

VEGF [7] = test: Uterine VEGF protein (western blot), prolonged tamoxifen model; assay type: in vivo, mouse; conditions: rPEDF 2 mg/kg SC once every 3 days from day 8 of one-month tamoxifen treatment
Description: as §1, §3

BAX = BAX protein level (western blot) in LH-15 cells under H2O2; assay type: cell-based, rat; conditions: exogenous rPEDF added to H2O2; P<0.05
Description: as §4
(§6) Samples were homogenized in cold lysis buffer (20 mM HEPES, 150 mM NaCl and 0.2% Igepal; sigma) and centrifuged at 12,000 rpm, for 15 min, at 4° C.). Proteins were separated by sodium dodecyl sulfate polyacrylamide gel electrophoresis (SDS-PAGE; 10%; Bio-Rad, Israel). Separated proteins were transferred onto nitrocellulose membranes (Whatman GmbH, Germany) in a mini tank transfer unit (TE 22, Amersham, UK). Approximate molecular masses were determined by comparison with the migration of pre-stained protein standards (Bio-Rad). Blots were blocked for 1 hour in TBST (10 mM Tris-HCl, pH=8.0, 150 mM NaCl, 0.05% Tween 20) containing 5% skim-milk (Alba, N.Y., USA) followed by an over-night incubation at 4° C. with primary antibodies. […] Intensity of the protein bands was quantified by Image J […] (NIH).

ERα [8] = test: Uterine ERα protein (western blot), prolonged tamoxifen model; assay type: in vivo, mouse
Description: as §1, §3

JNK = test: Uterine JNK phosphorylation (western blot), sub-acute tamoxifen model; assay type: in vivo, mouse; conditions: 7 days
Description: as §1, §3

OVX ICR mice = test: Uterine weight, prolonged tamoxifen model in ovariectomized mice; assay type: in vivo, mouse
Description: as §1, §2

LH-15 cells = test: MTT cell viability assay in LH-15 granulosa cells under H2O2; assay type: cell-based, rat; conditions: rPEDF 1 nM or 5 nM with 100 or 200 μM H2O2, 24 hours
Description: as §4
Equal amount of LH-15 cells were seeded onto 6-well plates to a final volume of 500 μl. Following treatments, each well was incubated for 30 minutes with 10 μl of MTT [3-(4, 5-Dimethylthiazol-2-yl)-2, 5-diphenyltetrazolium bromide; 5 mg/ml] followed by an additional 2-4 hours incubation period at 37° C. The reaction was terminated by addition of 110 μl HCl (0.07 M in isopropanol) and OD 560 nm was measured by the SpectraMax 190 microplate reader ([…], Eugene, Oreg., USA).

AKT [9] = test: AKT phosphorylation (western blot) in serum-starved LH-15 cells; assay type: cell-based, rat; conditions: 1 nM rPEDF, various durations, P<0.05
Description: as §4, §6

PR expression in uteri, rPEDF with tamoxifen [4]: without modifying the expression
B1: rPEDF: Human recombinant PEDF (NM_002615.4, SEQ ID NO: 1) expressed in E. coli BL21, purified on Ni-NTA His-Bind resin (protein, UniProt P36955 20-418, looked up)
Pigment epithelium-derived …: QNPASPPEEGSPDPDSTGALVEEEDPFFKVPVNKLAAAVSNFGYDLYRVRSSTSPTTNVLLSPLSVATALSALSLGAEQRTESIIHRALYYDLISSPDIHGTYKELLDTVTAPQKNLKSASRIVFEKKLRIKSSFVAPLEKSYGTRPRVLTGNPRLDLQEINNWVQAQMKGKLARSTKEIPDEISILLLGVAHFKGQWVTKFDSRKTSLEDFYLDEERTVRVPMMSDPKAVLRYGLDSDLSCKIAQLPLTGSMSIIFFLPLKVTQNLTLIEESLTSEFIHDIDRELKTVQAVLTVPKLKLSYEGEVTKSLQEMKLQSLFDSPDFSKITGKPIKLTQVEHRAGFEWNEDGAGTTPSPGLQPAHLTFPLDYHLNQPFIFVLRDTDTGALLFIGKILDPRGP
modifications: His tag
uterine weight, tamoxifen+rPEDF vs tamoxifen alone [1]: significant decrease | CD34 staining in uteri, tamoxifen+rPEDF vs tamoxifen alone (CD34): decrease in CD34 staining | uterine AKT phosphorylation, tamoxifen+rPEDF vs tamoxifen alone (AKT [2]): significant decrease in phosphorylation of AKT | SOD-1 mRNA expression under H2O2 (SOD-1): elevated their expression | GPX-1 mRNA expression under H2O2 (GPX-1): elevated their expression | ERα mRNA levels in uteri, rPEDF with tamoxifen (ERα [3]): able to reverse the prolonged tamoxifen-induced reduction in ERα mRNA levels | ERα mRNA levels in uteri, rPEDF with tamoxifen (ERα [5]): able to attenuate the sub-acute tamoxifen-induced reduction in ERα mRNA levels | number of ovulated oocytes (ICR female mice): significantly (P<0.05) decreased DXR-induced reduction in number of ovulated oocytes | ERβ expression in uteri, rPEDF with tamoxifen (ERβ): without modifying the expression | uterine VEGF protein levels, tamoxifen+rPEDF vs tamoxifen alone (VEGF [6]): significant decrease | uterine VEGF protein expression, tamoxifen+rPEDF vs tamoxifen alone (VEGF [7]): significantly decreased | BAX expression under H2O2 (BAX): decreased its expression | ERα protein expression in uteri, rPEDF with tamoxifen (ERα [8]): down-regulate the expression of ERα protein | uterine JNK phosphorylation, tamoxifen+rPEDF vs tamoxifen alone (JNK): increase in phosphorylation of JNK | effectiveness of rPEDF treatment by timing of administration (OVX ICR mice; preliminary analysis, data not shown, prolonged tamoxifen model): more effective when administered following a short period of initiation with tamoxifen | uterine weights, tamoxifen+rPEDF vs tamoxifen alone (OVX ICR mice; rPEDF 2 mg/kg SC once every 3 days from day 8 of one-month tamoxifen treatment): down-regulated in mice treated with tamoxifen+rPEDF, though not statistically significant (p=0.2) | cells viability (MTT) under H2O2 (LH-15 cells): significantly (P<0.05) decreased H2O2-induced reduction in cells viability | phosphorylation of AKT (AKT [9]): induced prolonged, time-dependent phosphorylation of AKT starting at 5 minutes
